Experimental data as given in paper PMC9482650, “Quantitative fragmentomics allow affinity mapping of interactomes” (Nature Communications, 2022).

T1: DVL3, Q92997
T1 sequence (Q92997 244-331, limits assumed, looked up): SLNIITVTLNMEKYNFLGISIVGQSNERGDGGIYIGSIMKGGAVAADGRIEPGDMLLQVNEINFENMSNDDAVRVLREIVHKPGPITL

T2: APBA2_1, Q99767
T2 sequence (Q99767 563-664, limits assumed, looked up): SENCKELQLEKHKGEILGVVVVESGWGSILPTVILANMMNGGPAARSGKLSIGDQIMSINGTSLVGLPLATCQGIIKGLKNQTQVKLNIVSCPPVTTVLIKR

T3: ARHGAP21, Q5T5U3
T3 sequence (Q5T5U3 45-169, limits assumed, looked up): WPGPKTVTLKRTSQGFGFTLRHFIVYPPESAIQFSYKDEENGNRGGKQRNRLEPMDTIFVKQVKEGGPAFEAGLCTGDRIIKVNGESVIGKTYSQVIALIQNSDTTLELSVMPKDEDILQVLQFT

T4: SNTB1, Q13884
T4 sequence (Q13884 107-205, limits assumed, looked up): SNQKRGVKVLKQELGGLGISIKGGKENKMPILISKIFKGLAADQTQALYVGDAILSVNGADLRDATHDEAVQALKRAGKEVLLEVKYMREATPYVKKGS

T5: PDZD7_3, Q9H5P4
T5 sequence (Q9H5P4 857-944, limits assumed, looked up): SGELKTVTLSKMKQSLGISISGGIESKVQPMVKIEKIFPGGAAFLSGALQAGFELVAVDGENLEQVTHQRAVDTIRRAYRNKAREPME

T6: GRIP1_5, Q9Y3R0
T6 sequence (Q9Y3R0 568-668, limits assumed, looked up): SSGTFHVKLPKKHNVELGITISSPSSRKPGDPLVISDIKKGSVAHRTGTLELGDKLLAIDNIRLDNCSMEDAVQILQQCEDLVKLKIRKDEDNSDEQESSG

T7: APBA3_1, O96018
T7 sequence (O96018 389-490, limits assumed, looked up): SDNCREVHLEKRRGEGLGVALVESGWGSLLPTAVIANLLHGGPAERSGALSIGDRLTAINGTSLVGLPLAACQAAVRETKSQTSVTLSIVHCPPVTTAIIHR

T8: DLG3_1, Q92796
T8 sequence (Q92796 125-227, limits assumed, looked up): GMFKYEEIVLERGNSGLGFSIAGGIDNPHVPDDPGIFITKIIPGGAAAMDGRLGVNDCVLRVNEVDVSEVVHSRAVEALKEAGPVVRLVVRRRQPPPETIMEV

T9: DLG3_2, Q92796
T9 sequence (Q92796 221-321, limits assumed, looked up): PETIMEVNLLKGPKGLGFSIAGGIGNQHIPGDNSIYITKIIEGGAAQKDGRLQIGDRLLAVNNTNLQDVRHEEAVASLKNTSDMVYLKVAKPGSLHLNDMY

T10: FRMPD1, Q5SYB0
T10 sequence (Q5SYB0 52-145, limits assumed, looked up): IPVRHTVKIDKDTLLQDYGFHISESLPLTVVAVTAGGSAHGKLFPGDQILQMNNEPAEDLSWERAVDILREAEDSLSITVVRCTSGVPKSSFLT

T11: TJP3_3, O95049
T11 sequence (O95049 375-456, limits assumed, looked up): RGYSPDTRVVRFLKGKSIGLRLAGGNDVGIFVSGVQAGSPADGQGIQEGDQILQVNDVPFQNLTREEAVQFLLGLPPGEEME

T12: SHANK1, Q9Y566
T12 sequence (Q9Y566 658-767, limits assumed, looked up): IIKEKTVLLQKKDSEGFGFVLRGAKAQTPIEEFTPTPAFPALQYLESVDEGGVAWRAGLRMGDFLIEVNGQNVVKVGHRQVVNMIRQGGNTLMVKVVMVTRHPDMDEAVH

T13: SYNJ2BP, P57105
T13 sequence (P57105 8-110, limits assumed, looked up): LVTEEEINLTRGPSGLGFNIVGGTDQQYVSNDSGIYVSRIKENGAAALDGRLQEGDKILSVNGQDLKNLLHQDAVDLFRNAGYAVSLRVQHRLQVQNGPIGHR

B1: PRKN, O60260 (peptide)
chain: VCMGDHWFDV
B2: CTNND2, Q9UQB3 (peptide)
chain: HYPASPDSWV
B3: CXCR1, P25024 (peptide)
chain: SSSVNVSSNL

Molecular target: T1, DVL3, Q92997
Test: holdup assay
Set-up: key: below the threshold = too weak to quantify, mostly under pKd 3.1 to 4
Conditions: plain residues with an end cap or a label only (N-terminal biotin on a linker: ado-ado)

| pKd | Binder |
| --- | --- |
| 3.59 | B1 |
| 4.04 | B2 |
| below the threshold | B3 |

Molecular target: T2, APBA2_1, Q99767
Test: holdup assay
Set-up: key: below the threshold = too weak to quantify, mostly under pKd 3.1 to 4
Conditions: plain residues with an end cap or a label only (N-terminal biotin on a linker: ado-ado)

| pKd | Binder |
| --- | --- |
| below the threshold | B1 |
| below the threshold | B2 |
| below the threshold | B3 |

Molecular target: Inadl_6, Q8NI35
Sequence (Q8NI35 1058-1167): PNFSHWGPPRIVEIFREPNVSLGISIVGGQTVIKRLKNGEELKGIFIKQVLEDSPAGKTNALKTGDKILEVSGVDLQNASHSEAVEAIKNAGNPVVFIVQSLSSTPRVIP
Test: holdup assay
Set-up: key: below the threshold = too weak to quantify, mostly under pKd 3.1 to 4
Conditions: plain residues with an end cap or a label only (N-terminal biotin on a linker: ado-ado)

| pKd | Binder |
| --- | --- |
| 3.7 | B1 |
| 4.37 | B2 |
| below the threshold | B3 |

Molecular target: T3, ARHGAP21, Q5T5U3
Test: holdup assay
Set-up: key: below the threshold = too weak to quantify, mostly under pKd 3.1 to 4
Conditions: plain residues with an end cap or a label only (N-terminal biotin on a linker: ado-ado)

| pKd | Binder |
| --- | --- |
| 4.08 | B1 |
| below the threshold | B2 |
| 3.77 | B3 |

Molecular target: GRID2IP_2, A4D2P6
Sequence (A4D2P6 272-370): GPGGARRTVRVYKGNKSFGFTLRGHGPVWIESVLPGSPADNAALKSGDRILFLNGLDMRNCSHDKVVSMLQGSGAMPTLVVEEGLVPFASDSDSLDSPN
Test: holdup assay
Set-up: key: below the threshold = too weak to quantify, mostly under pKd 3.1 to 4
Conditions: plain residues with an end cap or a label only (N-terminal biotin on a linker: ado-ado)

| pKd | Binder |
| --- | --- |
| below the threshold | B1 |
| below the threshold | B2 |
| 3.84 | B3 |

Molecular target: GRIP2_4, Q9C0E4
Sequence (Q9C0E4 446-548): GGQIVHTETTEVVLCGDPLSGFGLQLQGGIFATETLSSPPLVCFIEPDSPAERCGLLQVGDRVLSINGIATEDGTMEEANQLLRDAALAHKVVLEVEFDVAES
Test: holdup assay
Set-up: key: below the threshold = too weak to quantify, mostly under pKd 3.1 to 4
Conditions: plain residues with an end cap or a label only (N-terminal biotin on a linker: ado-ado)

| pKd | Binder |
| --- | --- |
| below the threshold | B1 |
| below the threshold | B2 |
| below the threshold | B3 |

Molecular target: T4, SNTB1, Q13884
Test: holdup assay
Set-up: key: below the threshold = too weak to quantify, mostly under pKd 3.1 to 4
Conditions: plain residues with an end cap or a label only (N-terminal biotin on a linker: ado-ado)

| pKd | Binder |
| --- | --- |
| below the threshold | B1 |
| 4.23 | B2 |
| below the threshold | B3 |

Molecular target: HTRA1, Q92743
Sequence (Q92743 360-477): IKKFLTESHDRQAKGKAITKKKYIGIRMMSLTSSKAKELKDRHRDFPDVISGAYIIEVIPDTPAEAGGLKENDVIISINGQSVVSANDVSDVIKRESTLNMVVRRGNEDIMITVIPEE
Test: holdup assay
Set-up: key: below the threshold = too weak to quantify, mostly under pKd 3.1 to 4
Conditions: plain residues with an end cap or a label only (N-terminal biotin on a linker: ado-ado)

| pKd | Binder |
| --- | --- |
| 4.96 | B1 |
| 4.71 | B2 |
| below the threshold | B3 |

Molecular target: T5, PDZD7_3, Q9H5P4
Test: holdup assay
Set-up: key: below the threshold = too weak to quantify, mostly under pKd 3.1 to 4
Conditions: plain residues with an end cap or a label only (N-terminal biotin on a linker: ado-ado)

| pKd | Binder |
| --- | --- |
| below the threshold | B1 |
| 4.3 | B2 |
| below the threshold | B3 |

Molecular target: Inadl_4, Q8NI35
Sequence (Q8NI35 547-651): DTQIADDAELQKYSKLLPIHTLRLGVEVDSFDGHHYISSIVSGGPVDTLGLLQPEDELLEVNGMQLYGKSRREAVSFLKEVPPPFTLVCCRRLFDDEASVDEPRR
Test: holdup assay
Set-up: key: below the threshold = too weak to quantify, mostly under pKd 3.1 to 4
Conditions: plain residues with an end cap or a label only (N-terminal biotin on a linker: ado-ado)

| pKd | Binder |
| --- | --- |
| below the threshold | B1 |
| below the threshold | B2 |
| below the threshold | B3 |

Molecular target: MAGI2_6, Q86UL8
Sequence (Q86UL8 1141-1229): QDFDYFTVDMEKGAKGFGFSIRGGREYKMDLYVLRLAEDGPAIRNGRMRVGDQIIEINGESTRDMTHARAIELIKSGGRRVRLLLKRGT
Test: holdup assay
Set-up: key: below the threshold = too weak to quantify, mostly under pKd 3.1 to 4
Conditions: plain residues with an end cap or a label only (N-terminal biotin on a linker: ado-ado)

| pKd | Binder |
| --- | --- |
| 4.19 | B1 |
| 5.37 | B2 |
| below the threshold | B3 |

Molecular target: SCRIB_2, Q14160
Sequence (Q14160 857-960): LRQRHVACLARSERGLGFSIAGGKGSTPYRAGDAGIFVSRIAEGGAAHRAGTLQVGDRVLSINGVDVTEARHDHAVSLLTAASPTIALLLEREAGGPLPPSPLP
Test: holdup assay
Set-up: key: below the threshold = too weak to quantify, mostly under pKd 3.1 to 4
Conditions: plain residues with an end cap or a label only (N-terminal biotin on a linker: ado-ado)

| pKd | Binder |
| --- | --- |
| below the threshold | B1 |
| 4.81 | B2 |
| below the threshold | B3 |

Molecular target: MAGI2_5, Q86UL8
Sequence (Q86UL8 915-1017): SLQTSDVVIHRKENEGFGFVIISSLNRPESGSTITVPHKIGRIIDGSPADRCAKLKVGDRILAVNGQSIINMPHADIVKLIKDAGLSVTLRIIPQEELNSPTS
Test: holdup assay
Set-up: key: below the threshold = too weak to quantify, mostly under pKd 3.1 to 4
Conditions: plain residues with an end cap or a label only (N-terminal biotin on a linker: ado-ado)

| pKd | Binder |
| --- | --- |
| below the threshold | B1 |
| below the threshold | B2 |
| below the threshold | B3 |

Molecular target: PDLIM1, O00151
Sequence (O00151 1-87): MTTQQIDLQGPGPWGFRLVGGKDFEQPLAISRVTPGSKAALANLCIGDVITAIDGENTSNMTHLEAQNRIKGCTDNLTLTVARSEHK
Test: holdup assay
Set-up: key: below the threshold = too weak to quantify, mostly under pKd 3.1 to 4
Conditions: plain residues with an end cap or a label only (N-terminal biotin on a linker: ado-ado)

| pKd | Binder |
| --- | --- |
| 3.83 | B1 |
| 4.06 | B2 |
| below the threshold | B3 |

Molecular target: T6, GRIP1_5, Q9Y3R0
Test: holdup assay
Set-up: key: below the threshold = too weak to quantify, mostly under pKd 3.1 to 4
Conditions: plain residues with an end cap or a label only (N-terminal biotin on a linker: ado-ado)

| pKd | Binder |
| --- | --- |
| below the threshold | B1 |
| below the threshold | B2 |
| below the threshold | B3 |

Molecular target: T7, APBA3_1, O96018
Test: holdup assay
Set-up: key: below the threshold = too weak to quantify, mostly under pKd 3.1 to 4
Conditions: plain residues with an end cap or a label only (N-terminal biotin on a linker: ado-ado)

| pKd | Binder |
| --- | --- |
| below the threshold | B1 |
| below the threshold | B2 |
| below the threshold | B3 |

Molecular target: T8, DLG3_1, Q92796
Test: holdup assay
Set-up: key: below the threshold = too weak to quantify, mostly under pKd 3.1 to 4
Conditions: plain residues with an end cap or a label only (N-terminal biotin on a linker: ado-ado)

| pKd | Binder |
| --- | --- |
| below the threshold | B1 |
| 3.99 | B2 |
| below the threshold | B3 |

Molecular target: DLG1_2, Q12959
Sequence (Q12959 314-412): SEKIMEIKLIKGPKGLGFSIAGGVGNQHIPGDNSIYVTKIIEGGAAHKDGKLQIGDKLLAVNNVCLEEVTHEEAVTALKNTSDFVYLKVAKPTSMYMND
Test: holdup assay
Set-up: key: below the threshold = too weak to quantify, mostly under pKd 3.1 to 4
Conditions: plain residues with an end cap or a label only (N-terminal biotin on a linker: ado-ado)

| pKd | Binder |
| --- | --- |
| below the threshold | B1 |
| 4.65 | B2 |
| below the threshold | B3 |

Molecular target: MAST1, Q9Y2H9
Sequence (Q9Y2H9 962-1065): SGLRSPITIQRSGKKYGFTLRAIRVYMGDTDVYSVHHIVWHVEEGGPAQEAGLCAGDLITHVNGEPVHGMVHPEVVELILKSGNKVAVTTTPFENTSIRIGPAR
Test: holdup assay
Set-up: key: below the threshold = too weak to quantify, mostly under pKd 3.1 to 4
Conditions: plain residues with an end cap or a label only (N-terminal biotin on a linker: ado-ado)

| pKd | Binder |
| --- | --- |
| below the threshold | B1 |
| 3.9 | B2 |
| 4.45 | B3 |

Molecular target: T9, DLG3_2, Q92796
Test: holdup assay
Set-up: key: below the threshold = too weak to quantify, mostly under pKd 3.1 to 4
Conditions: plain residues with an end cap or a label only (N-terminal biotin on a linker: ado-ado)

| pKd | Binder |
| --- | --- |
| below the threshold | B1 |
| 4.3 | B2 |
| below the threshold | B3 |

Molecular target: T10, FRMPD1, Q5SYB0
Test: holdup assay
Set-up: key: below the threshold = too weak to quantify, mostly under pKd 3.1 to 4
Conditions: plain residues with an end cap or a label only (N-terminal biotin on a linker: ado-ado)

| pKd | Binder |
| --- | --- |
| below the threshold | B1 |
| below the threshold | B2 |
| below the threshold | B3 |

Molecular target: T11, TJP3_3, O95049
Test: holdup assay
Set-up: key: below the threshold = too weak to quantify, mostly under pKd 3.1 to 4
Conditions: plain residues with an end cap or a label only (N-terminal biotin on a linker: ado-ado)

| pKd | Binder |
| --- | --- |
| 4.57 | B1 |
| 4.91 | B2 |
| below the threshold | B3 |

Molecular target: T12, SHANK1, Q9Y566
Test: holdup assay
Set-up: key: below the threshold = too weak to quantify, mostly under pKd 3.1 to 4
Conditions: plain residues with an end cap or a label only (N-terminal biotin on a linker: ado-ado)

| pKd | Binder |
| --- | --- |
| below the threshold | B1 |
| below the threshold | B2 |
| 3.94 | B3 |

Molecular target: T13, SYNJ2BP, P57105
Test: holdup assay
Set-up: key: below the threshold = too weak to quantify, mostly under pKd 3.1 to 4
Conditions: plain residues with an end cap or a label only (N-terminal biotin on a linker: ado-ado)

| pKd | Binder |
| --- | --- |
| below the threshold | B1 |
| 5.07 | B2 |
| below the threshold | B3 |
